The target in the assay is T1, biotinylated C36 peptide bL4_C36 (residues 628 to 663 of HIV-1 HXB2 Env, gp41 HR2) (HIV-1 HXB2, N-terminal biotin attached through the Gly-Ser-Gly-Ser linker; C-terminal amide).
T1 construct: also called C36 derivative
T1 peptide: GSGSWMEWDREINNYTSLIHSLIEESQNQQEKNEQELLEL
In words: ITC, bL4_C36 (50 microM, syringe) titrated into scAB013_N3 (2.46 microM, cell), 1:1 binding model.

B1: scAB013_N3 Alphabody, N-terminally appended with a (His)6 tag (designed binder)
chain: HHHHHHAAIAAQQHLIALIQWGIAQLQARIYAMTGGSSGGMSIEEIQKQIAAIQKQIAAIQKQIYRMTGGSSGGMSIQAIQKQLQAIVKQIKAIQKQILAMEA
notes: Expressed in E. coli BL21(DE3) from pET16b and purified by IMAC and SEC; also called gp41 N-trimer-mimicking Alphabody
As to B1, the Kd is 150 nM and the ΔH was -7.17 kcal/mol.

The values are drawn from patent US20120177676A1 (COMPLIX, published 2012).
